Measured values from patent US20150174237A1 (HENRY M JACKSON FOUNDATION FOR THE ADVANCEMENT OF MILITARY …, published 2015).

Target: T1, mouse B cell CD21 (on mouse B cells) (mouse, UniProt P19070 12-1025)
T1 construct: whole, on cells
T1 sequence: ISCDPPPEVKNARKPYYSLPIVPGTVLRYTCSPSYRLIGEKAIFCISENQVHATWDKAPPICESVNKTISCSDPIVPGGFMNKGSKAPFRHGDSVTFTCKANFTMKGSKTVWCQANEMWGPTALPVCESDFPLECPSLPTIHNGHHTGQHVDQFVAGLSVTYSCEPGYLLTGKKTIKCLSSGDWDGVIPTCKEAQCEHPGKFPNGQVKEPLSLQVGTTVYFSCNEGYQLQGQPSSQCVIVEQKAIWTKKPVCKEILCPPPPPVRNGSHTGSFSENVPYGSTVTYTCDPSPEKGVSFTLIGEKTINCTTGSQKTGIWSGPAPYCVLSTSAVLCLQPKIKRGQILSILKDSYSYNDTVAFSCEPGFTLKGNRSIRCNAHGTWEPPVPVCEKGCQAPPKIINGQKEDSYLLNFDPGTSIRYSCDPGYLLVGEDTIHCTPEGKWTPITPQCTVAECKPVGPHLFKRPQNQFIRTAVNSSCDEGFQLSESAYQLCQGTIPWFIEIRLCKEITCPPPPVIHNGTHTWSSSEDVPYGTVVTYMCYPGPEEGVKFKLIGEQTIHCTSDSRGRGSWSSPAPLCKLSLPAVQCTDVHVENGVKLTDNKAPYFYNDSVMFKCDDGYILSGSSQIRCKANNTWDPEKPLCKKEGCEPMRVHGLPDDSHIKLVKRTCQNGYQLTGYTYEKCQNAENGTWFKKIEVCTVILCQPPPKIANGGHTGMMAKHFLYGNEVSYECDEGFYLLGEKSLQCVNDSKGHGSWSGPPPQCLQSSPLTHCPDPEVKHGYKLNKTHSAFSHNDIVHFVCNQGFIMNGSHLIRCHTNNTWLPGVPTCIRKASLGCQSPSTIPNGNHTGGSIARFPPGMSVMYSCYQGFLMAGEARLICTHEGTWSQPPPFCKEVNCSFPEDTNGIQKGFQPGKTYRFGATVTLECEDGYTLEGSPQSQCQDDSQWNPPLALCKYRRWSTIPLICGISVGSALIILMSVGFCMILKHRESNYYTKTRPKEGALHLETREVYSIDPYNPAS
Assay: not described (own observation on mouse B cells)

B1: monomeric gp350 (truncated EBV gp350, amino acids 1-470, with His6 tag) (ligand)
chain: MEAALLVCQYTIQSLIHLTGEDPGFFNVEIPEFPFYPTCNVCTADVNVTINFDVGGKKHQLDLDFGQLTPHTKAVYQPRGAFGGSENATNLFLLELLGAGELALTMRSKKLPINVTTGEEQQVSLESVDVYFQDVFGTMWCHHAEMQNPVYLIPETVPYIKWDNCNSTNITAVVRAQGLDVTLPLSLPTSAQDSNFSVKTEMLGNEIDIECIMEDGEISQVLPGDNKFNITCSGYESHVPSGGILTSTSPVATPIPGTGYAYSLRLTPRPVSRFLGNNSILYVFYSGNGPKASGGDYCIQSNIVFSDEIPASQDMPTNTTDITYVGDNATYSVPMVTSEDANSPNVTVTAFWAWPNNTETDFKCKWTLTSGTPSGCENISGAFASNRTFDITVSGLGTAPKTLIITRTATNATTTTHKVIFSKAPESTTTSPTLNTTGFADPNTTTGLPSSTHVPTNLTAPASTGPTVSTHHHHHH
B1: no binding.
